Measured values reported in the domain aggregation screens of Martell et al. (2025).

assay: soluble fraction after stress (log2 fold change); higher = more stays soluble; pooled small domains, quantitative proteomics; conditions: stress: pH 4
In short: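 Pooled custom libraries of small protein domains were subjected to pH 4 and measured by high-throughput quantitative proteomics. The log2 fold change in soluble amount per domain is reported, higher values meaning more remained soluble. This is used as a measure of aggregation propensity.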

Sequence	soluble fraction (log2)
HMGLLEMPSERERQVLVLIAEGLSNKEIAARLYLTEGTVKNHAHSLYAKLNVTTRTLAIARARQLGI	-0.731
HMEFTVFMNSAGGSKLQVVKTVKELTGLGLKEAKAIVDGSPGPVKEGLSKADAEAMLAKLQEAGADVEL	-0.117
HMSPRADRSVNLDVGETVQIDDWGADGTAQIRYRGAPWTAVLRPGHTPHPGPHRVIELVGSRLLVEP	-0.746
HMKNLKLVSNTDGIRIDSWLADEFEDYSRSYLRKLIDQDLVYVNGNKIKANYKLKKGDEISISIPEPE	-0.259
HMSADEVSQQLTSEQTKSKSYQALLQAYAAYQQKSFDDAALELQNVQQDVLSDSQKTIYNTISQAVNS	-0.0227
HMNVDLLEARIPIQSHGMRLDQVVAELFPDYSRNRLAAWIKEGRLTVDGKTMKPRDRALASAHVVLEVV	-0.197
HMKQVTVGGTINAGGARIYADSYGNGGGRQTFGSDPIYTVLQERNGYILTRWHKLSSGYTGWFKKSDVSA	-0.00968
HMTLPEKSKRLFSQDDFWDQIFYRIGEGQSLREVSKYYKIPYTTIHDRIHSDEGIKLKYLEALTS	-0.592
HMVDISLSDRELEVLRLLAMGLSNADISRRLYLSEGTIRNYMSGIFSKLNVSDRTQAVVIALREGLVNL	-0.976
HMRRSSQQLTLTEVSTIKEMVTSEEYRHVPTGTLALLAQRLRKVFASSSTWYRLVRIYKWRRPRGRIH	0.296
HMGTIEQAFKGKAPGSAHLYDRARAVLAGGVTHDTRIHAPFPIMVQRALGARKWDVDGNEYIDY	-0.259
HMAKSETAKIKATPYGWLRVRDTPSLNGAEIARVNSGDEYKVLEKETGWIKIKVSDTVEGWVSDAYIELS	0.16
HMEGNLVEIFEDAFGRTMSTMDIEYINQFKRTGYDDEMIVSALREAVKSNALSFRYIERVLENWAHS	-1.83
HMEQLIIQEELSGKRLDQLVSLLFPSLTRAHAQKLIKEGAVLVNEKPRKPAYAVMTGELLTVELPEPE	-0.755
HMKNLADNIVALRKKHGLSQEQFAEKIDVTRQAVSNWERRIATPDVETIDLIAKLFDTDLTALVNG	-0.129
HMKGVENLSDIDIQKALNNARANLSKNKAKLEQAGDDEKKKASALAMIQKWETTKKAIEEEIEARKKKSLN	-0.088
HMFDLDIEQIANDLKHGVMPNLYGLSLQDALYLLEAKGIRVKVAGSGSVVNQSIKTGAYVGSGSVLKLEL	-0.833
HMQDLTAQQQAILSFLKEHPKATRKEISENIPNITEDNIRYNLSQLQELGFVKSMGDSFIRIAI	0.216
HMHEIVDTVLQVKQSVEADPLIAPALKNKEIVFQLNAKGVFQFKNAVIQVASALGISKNTVYMHLRNNK	-0.14
HMAKIEVENLEETILENLKANNGFMPYNDKTSPEEIYEVFHVSKKHFKNSLGGLMKKGLIFQNEKGTKL	-0.444
HMERPPHELLSDREYQTMVMIASGRTLTQIAEEMSLSPKTVSVYRARLLEKMKLKNNAELTHYALKHKLV	-0.2
HMGDLVKGKVVGYDPDNVIVDIGAKTNALVPNREAVVEAGDDIKETLKKGNEYEFLIIRDEDEEGEFL	0.0813
HMVMETLAERINTALQTKGLSVNALARRVGVSYPAMRKITKGETLNPKFLFEIAEALGVSVEWLKTGEGSP	0.0978
HMDSGINVWASAEGLTITADKDTTVYVYDIYGRTIHTSEVKAGTSDIAINTKGIVIVKANGYTKKII	-0.76
HMIPDAIDPDGRFKWRAGEAVVGFGRHAGEPLKKIAIENPEFLRWILKADFSTDVKKIASDALKGYFPEK	0.284
HMTTARERVYKTLQQWIVNGTLLPEERLNDVELARYFSVSRTPVREALQMLAEQKLVKMVPSSGTFVA	-0.0644
HMEQNHYEVLGVSRDAIPEEIRKAYFEYARKLHPDANPDPGAAEQFMRIQTAYDVLSNPDRRHEYDGLLPP	-0.249
HMNVPATAEAYEALLADAESVGKSLWGHEAKRFAAEQALLSAGLREVIQVDPDKARELALRLRGLLDEYRG	-1.24
HMATSNDTQITGSLALRFDGSGDTFTVNVNGDDKLEINTEGTVIYKPLTTAPTYVSGGLFFSSSGDFYVG	-0.163
HMASLSITVNGETRRAAPGSIADLVRAIGLDPAKVAVERNGEIAPRSTLADVALADGDVLEIVHFVG	0.147
